From the supplement of paper PMC9170038 come the findings set out here.

In the series the test system is MS2 coat protein. The series is described as follows: apparent KD of MS2 coat protein; higher = weaker reporter binding. To be noted: Eterna round: R107. In short, it runs like this:
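Values are apparent KD, taken as the median for each design of fits to normalised binding curves from individual clusters. The designed RNA switches were transcribed on-chip from Illumina sequencing clusters and exposed to SNAP-549-labelled MS2 coat protein at twofold increasing amounts from 0.7 or 1.5 nM to 3 µM. Titration used 100 mM Tris-HCl pH 7.5, 80 mM KCl and 4 mM MgCl2, without or with constant ligand.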

[1] abbreviates: input ligand: theophylline 20 uM.
The mark [2] stands for this setting: input ligand: theophylline 2 mM.
[3] abbreviates: input ligand: tryptophan 2.4 mM.

“GGUACAUGAGGAUCACCCAUGUAUGCGAGCCGAGGACCGGUACGGCCGCCACUCGCUUAACAUGAGGAUCACCCAUGUUUCUCGG [SSTA DOUBLE!!! :-D #15]”: the “apparent KD of MS2 coat protein” value reads like this: (input ligand: arginine 13.2 mM) 90.9 nM; (input ligand: none) 94.9 nM; under setting [1], 157 nM; under setting [2], 120 nM; under setting [3], 108 nM.

On to “GGUACAUGAGGAUCACCCAUGUGUCAUGAUACCAGACAUGAAAAUGUCCCUUGGCAGCAUGCCAGACGGCCGCGUUUAGCGGCCG [Oresin]”, for which the “apparent KD of MS2 coat protein” value runs as follows: (input ligand: arginine 13.2 mM) 18.6 nM; (input ligand: none) 12.8 nM; under setting [1], 19.7 nM; under setting [2], 19.6 nM; under setting [3], 16.3 nM.

For the sequence “GGUCUCUGGAGCGAUACCAGCUUAAAUGUACUGGCCAGGUACAUGAGGAUCACCCAUGUAAGCCCUUGGCAGCGCUCCAGAGACC [#1 Exclusion - Theophylline B Attempt #13 (HarryS)]”, the “apparent KD of MS2 coat protein” value by setting is: (input ligand: arginine 13.2 mM) 12.3 nM; (input ligand: none) 13.9 nM; under setting [1], 13.8 nM; under setting [2], 39.2 nM; under setting [3], 13.5 nM.

Consider “GGUGAUCCGUAUCACCGGAUCAUCGGUGAUACCAGCAUCGAAAGAUGCCCUUGGCAGCACCAACAUGAGGAUCACCCAUGUAAUA [(M)'-(T)'-(M)''-(T1)-(T2)-(M1)-(M2)_Design6]”, for which the “apparent KD of MS2 coat protein” value runs as follows: (input ligand: arginine 13.2 mM) 70.3 nM; under setting [1], 67 nM; under setting [3], 98.4 nM.

“GGUGGGACUUGUGAUACCAGCCUAAUUCGAAUCGAAUUGCACAUGAGGAUCACCCAUGUCGGCCCUUGGCAGCAUGAGUAUUUAU [Aagexe]”: the “apparent KD of MS2 coat protein” value (input ligand: arginine 13.2 mM) came to 104 nM, the “apparent KD of MS2 coat protein” value under setting [1] is 129 nM and the “apparent KD of MS2 coat protein” value under setting [3] came out at 255 nM.

With “GGUUAACAUGAGGAUCACCCAUGUCUUGAUACCAGUCGUUAUCUUGACCCUUGGCAGCAAGAUGACCGUUAGCAGCCGUCUUCUC [theeternabot_sameState_MS2_Theo_A_45]”, the “apparent KD of MS2 coat protein” value came to 11.9 nM (input ligand: arginine 13.2 mM), 16.6 nM under setting [1] and 13.2 nM under setting [3].

As to “GGUUACUCUACGGCCGCCACUGGGCAUGUAAAUAACAUGAGGAUCACCCAUGUGGAUUAAAAUUACAGGACCGGGUAGUGUAACC [Tryptophan B 21]”, the “apparent KD of MS2 coat protein” value (input ligand: arginine 13.2 mM) amounted to 86.6 nM; the “apparent KD of MS2 coat protein” value (input ligand: none) was determined as 300 nM; the “apparent KD of MS2 coat protein” value under setting [1] worked out at 239 nM; the “apparent KD of MS2 coat protein” value under setting [2] came to 345 nM; the “apparent KD of MS2 coat protein” value under setting [3] was 36.1 nM.

“GGUUGGUGUGGAGACAUAUUGAUCACUGAAGGAGCGGGAAUAAACCCAGGUAGGUCGCAGAGAUCCACAUGAGGAUCACCCAUGU [!0.Q]”: the “apparent KD of MS2 coat protein” value is 80.8 nM (input ligand: arginine 13.2 mM); 40.2 nM (input ligand: none); 68.9 nM under setting [1]; 86.6 nM under setting [2]; 36.2 nM under setting [3].

With “GUAACACAUGAGGAUCACCCAUGUUCCGAUACCAGUAUUGAAGAUUACCCUUGGCAGCGGGUAGGUCGGAGUGGACGGCCCGAGC [theeternabot_sameState_MS2_Theo_A_8]”, the “apparent KD of MS2 coat protein” value stood at 17.9 nM (input ligand: arginine 13.2 mM), 25 nM under setting [1] and 23.7 nM under setting [3].

On to “GUAUAGUCUCGAAGGAGCGUCACAUGAGGAUCACCCAUGUACAUGAGGAUCACCCAUGUGUGGCAGGUAGGUCGCGAGCUAUACC [Exclusion Arginine B GF8]”, for which the “apparent KD of MS2 coat protein” value reads like this: (input ligand: arginine 13.2 mM) 136 nM; (input ligand: none) 265 nM; under setting [1], 228 nM; under setting [2], 281 nM; under setting [3], 312 nM.

“GUAUGGAAACAUACUAGGGUAUCAUGAGAUACCAGUACAGAAAUGUACCCUUGGCAGCUCUAGCAUACAUGAGGAUCACCCAUGU [Ex Theophylline A 6]”: the “apparent KD of MS2 coat protein” value runs as follows: (input ligand: arginine 13.2 mM) 15.4 nM; under setting [1], 20 nM; under setting [3], 12 nM.

Turning to “GUCAGAACAUAUCAUGUUCUGGCACUGGAAGGAGCGAGCGAGAGCUCAGGUAGGUCGCCAGAACAUGAGGAUCACCCAUGUAAUA [(A)''-(M)'-(A)'(Arg1)-(Arg2)-(M1)-(M2)_Design11]”, the “apparent KD of MS2 coat protein” value runs as follows: (input ligand: arginine 13.2 mM) 50.5 nM; (input ligand: none) 63.4 nM; under setting [1], 95.2 nM; under setting [2], 296 nM; under setting [3], 49 nM.

For the sequence “GUCAGUAGAACAGAUACCAGUCAAAAGCUGUGAUCUCAUAACAUGAGGAUCACCCAUGUUGACCCUUGGCAGCUGUGGGCGAGGG [#19 Exclusion-TheophyllineB]”, the “apparent KD of MS2 coat protein” value (input ligand: arginine 13.2 mM) was found to be 27 nM, the “apparent KD of MS2 coat protein” value under setting [1] amounted to 29.1 nM and the “apparent KD of MS2 coat protein” value under setting [3] is 19.1 nM.

In the case of “GUCCUAGCGAGCGCUCGCUAGGACGCGGAUACCAGCGAGGUCCAUCGCCCUUGGCAGCCGAACAUGAGGAUCACCCAUGUCGGUA [#1 Same State - Theophylline A Attempt #16 (HarryS)]”, the “apparent KD of MS2 coat protein” value (input ligand: arginine 13.2 mM) amounted to 8.3 nM; the “apparent KD of MS2 coat protein” value (input ligand: none) came to 11.6 nM; the “apparent KD of MS2 coat protein” value under setting [1] is 13.2 nM; the “apparent KD of MS2 coat protein” value under setting [2] amounted to 13.4 nM; the “apparent KD of MS2 coat protein” value under setting [3] stood at 9.97 nM.

“GUCUGUGACUGAAGGAGCGACAUGAGGAUCACCCAUGUCUCCCGUUAUGGGAGUUCCUUAGGUCAGGUAGGUCGCAGUCACAGAC [#1 Exclusion - Arginine B Attempt #28 (Inspired by Omei)]”: the “apparent KD of MS2 coat protein” value reads like this: (input ligand: arginine 13.2 mM) 71.4 nM; (input ligand: none) 112 nM; under setting [1], 137 nM; under setting [2], 152 nM; under setting [3], 103 nM.
